Reference: patent US20040043420A1, “Method of identifying conformation-sensitive binding peptides and uses thereof” (priority 2003, published 2004)
No end group written: not given here.

How the values were obtained:
[1] = molecular target: T1, ER α (UniProt P03372 1-595, limits assumed); assay: phage isolated on ERα on plastic; Tamoxifen
T1 construct: also called estrogen receptor α; ERα-ERE
T1 sequence (looked up): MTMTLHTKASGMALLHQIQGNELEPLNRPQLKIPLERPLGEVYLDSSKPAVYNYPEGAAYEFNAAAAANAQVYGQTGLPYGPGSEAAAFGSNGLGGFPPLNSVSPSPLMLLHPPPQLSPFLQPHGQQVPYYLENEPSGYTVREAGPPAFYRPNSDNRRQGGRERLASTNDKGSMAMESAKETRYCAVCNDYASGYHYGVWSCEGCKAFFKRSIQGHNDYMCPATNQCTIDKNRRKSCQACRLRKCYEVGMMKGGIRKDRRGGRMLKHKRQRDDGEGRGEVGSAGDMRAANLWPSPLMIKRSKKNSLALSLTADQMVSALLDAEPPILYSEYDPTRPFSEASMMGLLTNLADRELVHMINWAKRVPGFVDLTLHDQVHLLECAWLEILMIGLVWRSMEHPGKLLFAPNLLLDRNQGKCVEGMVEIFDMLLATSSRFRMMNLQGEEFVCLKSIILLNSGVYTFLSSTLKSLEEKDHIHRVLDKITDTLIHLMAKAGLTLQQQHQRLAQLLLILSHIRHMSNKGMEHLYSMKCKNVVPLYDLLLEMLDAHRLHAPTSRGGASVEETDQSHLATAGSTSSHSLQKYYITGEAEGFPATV

[2] = molecular target: T2, Gal4 transcriptional activation domain (AD) fused in frame with AR (yeast), P10275; assay: cell-based or functional assay
T2 chain: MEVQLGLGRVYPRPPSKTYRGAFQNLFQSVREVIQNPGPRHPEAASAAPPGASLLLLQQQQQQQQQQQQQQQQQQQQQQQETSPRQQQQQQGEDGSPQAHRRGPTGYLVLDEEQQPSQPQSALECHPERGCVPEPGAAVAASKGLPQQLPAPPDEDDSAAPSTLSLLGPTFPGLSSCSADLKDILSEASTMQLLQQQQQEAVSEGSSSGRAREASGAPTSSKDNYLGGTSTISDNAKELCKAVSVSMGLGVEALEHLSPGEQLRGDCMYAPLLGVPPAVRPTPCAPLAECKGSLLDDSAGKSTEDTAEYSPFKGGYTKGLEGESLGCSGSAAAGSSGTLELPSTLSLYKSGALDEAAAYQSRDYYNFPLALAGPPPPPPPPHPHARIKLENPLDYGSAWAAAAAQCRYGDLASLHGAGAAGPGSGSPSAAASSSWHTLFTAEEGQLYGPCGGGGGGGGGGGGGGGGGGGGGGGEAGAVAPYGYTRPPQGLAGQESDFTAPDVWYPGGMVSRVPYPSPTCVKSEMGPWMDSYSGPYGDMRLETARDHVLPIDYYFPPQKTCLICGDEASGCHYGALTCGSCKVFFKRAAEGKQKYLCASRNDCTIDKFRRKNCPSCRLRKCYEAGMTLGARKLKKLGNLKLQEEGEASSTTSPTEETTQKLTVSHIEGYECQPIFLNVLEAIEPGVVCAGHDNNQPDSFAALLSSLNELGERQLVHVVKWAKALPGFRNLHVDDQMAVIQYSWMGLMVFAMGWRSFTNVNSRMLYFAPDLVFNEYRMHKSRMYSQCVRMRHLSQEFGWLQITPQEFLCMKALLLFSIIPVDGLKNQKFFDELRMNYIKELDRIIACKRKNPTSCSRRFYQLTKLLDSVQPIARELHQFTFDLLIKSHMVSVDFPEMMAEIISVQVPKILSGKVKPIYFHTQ

[3] = molecular target: T3, pVP16-AR (HSV), P10275; assay: cell-based or functional assay
T3 chain: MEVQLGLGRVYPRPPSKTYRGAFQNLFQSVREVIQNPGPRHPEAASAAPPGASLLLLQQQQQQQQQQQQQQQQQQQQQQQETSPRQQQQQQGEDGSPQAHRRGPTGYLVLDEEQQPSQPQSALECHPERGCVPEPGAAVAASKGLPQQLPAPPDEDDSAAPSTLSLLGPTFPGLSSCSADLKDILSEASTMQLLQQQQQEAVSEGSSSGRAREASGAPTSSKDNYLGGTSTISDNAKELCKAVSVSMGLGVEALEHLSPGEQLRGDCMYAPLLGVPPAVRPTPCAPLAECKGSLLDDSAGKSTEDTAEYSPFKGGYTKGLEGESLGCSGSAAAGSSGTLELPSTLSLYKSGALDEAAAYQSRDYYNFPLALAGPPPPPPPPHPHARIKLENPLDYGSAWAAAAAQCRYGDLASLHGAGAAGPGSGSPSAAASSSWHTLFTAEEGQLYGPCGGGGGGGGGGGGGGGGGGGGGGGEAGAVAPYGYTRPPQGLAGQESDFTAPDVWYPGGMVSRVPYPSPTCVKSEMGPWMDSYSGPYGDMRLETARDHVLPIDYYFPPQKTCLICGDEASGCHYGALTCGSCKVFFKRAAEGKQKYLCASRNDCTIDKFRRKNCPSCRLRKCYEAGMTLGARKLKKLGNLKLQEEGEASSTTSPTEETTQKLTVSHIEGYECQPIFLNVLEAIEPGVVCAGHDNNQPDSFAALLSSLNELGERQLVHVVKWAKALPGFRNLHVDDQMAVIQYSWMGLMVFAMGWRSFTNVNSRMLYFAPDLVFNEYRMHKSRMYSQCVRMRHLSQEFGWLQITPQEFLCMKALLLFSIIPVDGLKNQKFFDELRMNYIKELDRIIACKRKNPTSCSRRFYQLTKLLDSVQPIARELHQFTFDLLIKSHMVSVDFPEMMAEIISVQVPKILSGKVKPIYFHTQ

[4] = molecular target: T1, ER α; assay: phage isolated on ERα-ERE; Estradiol
[5] = molecular target: T4, estrogen receptor (ER) α as a carboxy-terminal fusion to the Gal4-activation domain (yeast, UniProt P03372 1-595, limits assumed); assay: cell-based or functional assay; also: test concentration or dose not given here
T4 sequence (looked up): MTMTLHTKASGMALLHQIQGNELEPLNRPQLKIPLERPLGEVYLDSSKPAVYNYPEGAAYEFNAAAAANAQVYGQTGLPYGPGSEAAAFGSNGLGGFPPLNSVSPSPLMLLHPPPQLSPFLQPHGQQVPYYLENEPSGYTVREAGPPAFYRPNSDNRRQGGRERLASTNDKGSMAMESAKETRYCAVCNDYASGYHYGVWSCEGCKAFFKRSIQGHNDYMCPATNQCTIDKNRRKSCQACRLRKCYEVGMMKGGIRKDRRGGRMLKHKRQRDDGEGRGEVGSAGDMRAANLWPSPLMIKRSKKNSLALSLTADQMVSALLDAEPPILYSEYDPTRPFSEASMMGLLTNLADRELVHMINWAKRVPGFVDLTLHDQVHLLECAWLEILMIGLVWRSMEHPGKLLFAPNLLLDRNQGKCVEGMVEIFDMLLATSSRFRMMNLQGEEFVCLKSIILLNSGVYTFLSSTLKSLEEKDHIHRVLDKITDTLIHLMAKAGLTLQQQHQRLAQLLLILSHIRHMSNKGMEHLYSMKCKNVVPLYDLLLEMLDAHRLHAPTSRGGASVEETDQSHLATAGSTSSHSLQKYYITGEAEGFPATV

## SSGYWGGWDYGAGSR [18PT]
[1]
  binding result: binds

B1: B8E9, P04386 1-147 (peptide)
chain: MKLLSSIEQACDICRLKKLKCSKEKPKCAKCLKNNWECRYSPKTKRSPLTRAHLTEVESRLERLEQLFLLIFPREDLDMILKMDSLQDIKALLTGLFVQDNVNKDAVTDRLASVETDMPLTLRQHRISATSSSEESSNKGQRQLTVSEFQQCMCAEVKSWLGGSLDLQPS
modifications: not checked
[2]
  Fold induction (yeast two-hybrid): 4 fold
  β-galactosidase activity (yeast two-hybrid), CPA: 0.563
  β-galactosidase activity (yeast two-hybrid), DHT: 1.75
  β-galactosidase activity (yeast two-hybrid), No Lig: 0.499
  β-galactosidase activity (yeast two-hybrid), RU: 0.8
[3]
  luciferase (mammalian two-hybrid, Huh-7), CYP. (Relative Light Units): 16
  luciferase (mammalian two-hybrid, Huh-7), DHT (Relative Light Units): 19.6
  luciferase (mammalian two-hybrid, Huh-7), MPA (Relative Light Units): 18.5
  luciferase (mammalian two-hybrid, Huh-7), RU486 (Relative Light Units): 10.2
  luciferase (mammalian two-hybrid, Huh-7), no compound (Relative Light Units): 0.209

## HSHSPLLMALLAPPGG [15E]
[4]
  binding result: binds

B2: B6F3 (peptide)
chain: MKLLSSIEQACDICRLKKLKCSKEKPKCAKCLKNNWECRYSPKTKRSPLTRAHLTEVESRLERLEQLFLLIFPREDLDMILKMDSLQDIKALLTGLFVQDNVNKDAVTDRLASVETDMPLTLRQHRISATSSSEESSNKGQRQLTVSEFFRATHLLRLLRTDSALDLQPS
[5]
  Fold Induction (ligand-induced β-galactosidase, two-hybrid): 3 fold

B3: B2G1 (peptide)
chain: MKLLSSIEQACDICRLKKLKCSKEKPKCAKCLKNNWECRYSPKTKRSPLTRAHLTEVESRLERLEQLFLLIFPREDLDMILKMDSLQDIKALLTGLFVQDNVNKDAVTDRLASVETDMPLTLRQHRISATSSSEESSNKGQRQLTVSEFFRLRRLDRLLQDSFLLDLQPS
[5]
  Fold Induction (ligand-induced β-galactosidase, two-hybrid): 12 fold

B4: B4F6 (peptide)
chain: MKLLSSIEQACDICRLKKLKCSKEKPKCAKCLKNNWECRYSPKTKRSPLTRAHLTEVESRLERLEQLFLLIFPREDLDMILKMDSLQDIKALLTGLFVQDNVNKDAVTDRLASVETDMPLTLRQHRISATSSSEESSNKGQRQLTVSEFSGVPILHMLLMLPSSLDLQPS
[5]
  Fold Induction (ligand-induced β-galactosidase, two-hybrid): 5 fold

B5: B8H3, P04386 1-147 (peptide)
chain: MKLLSSIEQACDICRLKKLKCSKEKPKCAKCLKNNWECRYSPKTKRSPLTRAHLTEVESRLERLEQLFLLIFPREDLDMILKMDSLQDIKALLTGLFVQDNVNKDAVTDRLASVETDMPLTLRQHRISATSSSEESSNKGQRQLTVSEFHSRLRVEVVSWGIGSTCSQANSGRISYDL
modifications: not checked
[2]
  Fold induction (yeast two-hybrid): 22 fold
  β-galactosidase activity (yeast two-hybrid), CPA: 0.393
  β-galactosidase activity (yeast two-hybrid), DHT: 3.81
  β-galactosidase activity (yeast two-hybrid), No Lig: 0.174
  β-galactosidase activity (yeast two-hybrid), RU: 0
[3]
  luciferase (mammalian two-hybrid, Huh-7), CYP. (Relative Light Units): 10.5
  luciferase (mammalian two-hybrid, Huh-7), DHT (Relative Light Units): 11.6
  luciferase (mammalian two-hybrid, Huh-7), MPA (Relative Light Units): 11.3
  luciferase (mammalian two-hybrid, Huh-7), RU486 (Relative Light Units): 3.88
  luciferase (mammalian two-hybrid, Huh-7), no compound (Relative Light Units): 0.132

## SRLVALLKSPWSVSR [4E]
[4]
  binding result: binds

## SSWAGIKFGKPPHSR [8PT]
[1]
  binding result: binds

## SSSATSIKVQYQISR [15PT]
[1]
  binding result: binds

B6: B5G11, P04386 1-147 (peptide)
chain: MKLLSSIEQACDICRLKKLKCSKEKPKCAKCLKNNWECRYSPKTKRSPLTRAHLTEVESRLERLEQLFLLIFPREDLDMILKMDSLQDIKALLTGLFVQDNVNKDAVTDRLASVETDMPLTLRQHRISATSSSEESSNKGQRQLTVSEFRSSVFEQMYLCTGGSLDLQPS
modifications: not checked
[2]
  Fold induction (yeast two-hybrid): 6 fold
  β-galactosidase activity (yeast two-hybrid), CPA: 0.973
  β-galactosidase activity (yeast two-hybrid), DHT: 3.96
  β-galactosidase activity (yeast two-hybrid), No Lig: 0.638
  β-galactosidase activity (yeast two-hybrid), RU: 0.9
[3]
  luciferase (mammalian two-hybrid, Huh-7), CYP. (Relative Light Units): 4.46
  luciferase (mammalian two-hybrid, Huh-7), DHT (Relative Light Units): 15.8
  luciferase (mammalian two-hybrid, Huh-7), MPA (Relative Light Units): 8.03
  luciferase (mammalian two-hybrid, Huh-7), RU486 (Relative Light Units): 0.105
  luciferase (mammalian two-hybrid, Huh-7), no compound (Relative Light Units): 0.0503

## SSSPWWSFNLRDMSR [12PT]
[1]
  binding result: binds

## SSWHSRWDLALGFSR [17PT]
[1]
  binding result: binds

## SSCLREILLYGACSR (not fully specified; cysteine pairing not given here) [13E]
[4]
  binding result: binds

## SSGRYDPFVLNAASR [11PT]
[1]
  binding result: binds
